Experiments:
Test in all cases: cell-based or functional assay
[1] = target: HIV-1 MGRM-G-019 Env (HIV-1)
[2] = target: HIV-1 MGRM-F1-021 Env (HIV-1)
[3] = target: HIV-1 JRCSF Env on pseudovirus (HIV-1) (UniProt P20871)
[4] = target: HIV-1 MGRM-F1-016 Env (HIV-1)
[5] = target: HIV-1 MGRM-C-002 Env on pseudovirus (HIV-1)
[6] = target: HIV-1 MGRM-D-005 Env (HIV-1)
[7] = target: HIV-1 MGRM-G-016 Env (HIV-1)
[8] = target: HIV-1 MGRM-D-012 Env (HIV-1)
[9] = target: HIV-1 MGRM-F1-008 Env (HIV-1)
[10] = target: HIV-1 APV_6 Env on pseudovirus (HIV-1)
[11] = target: HIV-1 APV_17 Env on pseudovirus (HIV-1)
[12] = target: HIV-1 MGRM-C-022 Env on pseudovirus (HIV-1)
[13] = target: HIV-1 MGRM-G-027 Env (HIV-1)
[14] = target: HIV-1 MGRM-AG-002 Env (HIV-1)
[15] = target: HIV-1 MGRM-AG-008 Env (HIV-1)
[16] = target: HIV-1 93IN905 Env (HIV-1)
[17] = target: HIV-1 MGRM-D-024 Env (HIV-1)
[18] = target: HIV-1 97ZA012 Env on pseudovirus (HIV-1)
[19] = target: HIV-1 MGRM-Chronic-B-010 Env on pseudovirus (HIV-1)
[20] = target: HIV-1 MGRM-AG-003 Env (HIV-1)
[21] = target: HIV-1 CAAN.A2 (Acute) Env on pseudovirus (HIV-1)
[22] = target: HIV-1 MGRM-C-024 Env on pseudovirus (HIV-1)
[23] = target: HIV-1 MGRM-AE-003 Env (HIV-1)
[24] = target: HIV-1 MGRM-F1-014 Env (HIV-1)
[25] = target: HIV-1 MGRM-G-024 Env (HIV-1)
[26] = target: HIV-1 TRO.11 (Acute) Env on pseudovirus (HIV-1)
[27] = target: HIV-1 MGRM-F1-018 Env (HIV-1)
[28] = target: HIV-1 MGRM-D-001 Env (HIV-1)
[29] = target: HIV-1 92BR020 Env (HIV-1)
[30] = target: HIV-1 MGRM-G-001 Env (HIV-1)
[31] = target: HIV-1 98IN022 Env on pseudovirus (HIV-1)
[32] = target: HIV-1 SF162 Env on pseudovirus (HIV-1) (UniProt P19550)
[33] = target: HIV-1 MGRM-F1-012 Env (HIV-1)
[34] = target: HIV-1 LAVIC_18 Env on pseudovirus (HIV-1)
[35] = target: HIV-1 MGRM-AG-012 Env (HIV-1)
[36] = target: HIV-1 MGRM-Chronic-B-001 Env on pseudovirus (HIV-1)
[37] = target: HIV-1 MGRM-Chronic-B-020 Env on pseudovirus (HIV-1)
[38] = target: HIV-1 MGRM-AG-011 Env (HIV-1)
[39] = target: HIV-1 93UG077 Env (HIV-1)
[40] = target: HIV-1 MGRM-F1-020 Env (HIV-1)
[41] = target: HIV-1 MGRM-G-015 Env (HIV-1)
[42] = target: HIV-1 MGRM-AE-007 Env (HIV-1)
[43] = target: HIV-1 IAVI-C22 Env (HIV-1)
HIV-1 JRCSF Env (HIV-1) = HIV-1 JRCSF Env (HIV-1) (UniProt P20871)
[44] = target: HIV-1 92TH021 Env (HIV-1)
[45] = target: HIV-1 MGRM-AE-005 Env (HIV-1)
[46] = target: HIV-1 MGRM-D-016 Env (HIV-1)
[47] = target: HIV-1 MGRM-D-029 Env (HIV-1)
[48] = target: HIV-1 MGRM-G-013 Env (HIV-1)
[49] = target: HIV-1 QH0692.42 (Acute) Env on pseudovirus (HIV-1)
[50] = target: HIV-1 98CN009 Env on pseudovirus (HIV-1)

Substance: 2G12 (antibody)
- IC50 (µg/ml), pseudovirus neutralization [1]: 31 µg/mL
- IC50 (pseudovirus neutralization) [2]: 14.1 µg/mL
- IC50 [3]: 0.37 µg/mL
- IC50 (pseudovirus neutralization) [4]: > 50 µg/mL
- IC50 [5]: > 50 µg/mL
- IC50 (µg/ml), pseudovirus neutralization [6]: 25.7 µg/mL
- IC50 (µg/ml), pseudovirus neutralization [7]: > 50 µg/mL
- IC50 (µg/ml), pseudovirus neutralization [8]: > 50 µg/mL
- IC50 (pseudovirus neutralization) [9]: > 50 µg/mL
- IC50 [10]: 1.9 µg/mL
- IC50 [11]: > 50 µg/mL
- IC50 [12]: > 50 µg/mL
- IC50 (µg/ml), pseudovirus neutralization [13]: > 50 µg/mL
- IC50 (µg/ml), pseudovirus neutralization [14]: 0.54 µg/mL
- IC50 (µg/ml), pseudovirus neutralization [15]: > 50 µg/mL
- neutralization IC50 [16]: > 50 µg/mL
- neutralization IC90 [16]: > 50 µg/mL
- IC50 (µg/ml), pseudovirus neutralization [17]: > 50 µg/mL
- IC50 [18]: > 50 µg/mL
- IC50 [19]: 1.5 µg/mL
- IC50 (µg/ml), pseudovirus neutralization [20]: > 50 µg/mL
- IC50 [21]: > 50 µg/mL
- IC50 [22]: > 50 µg/mL
- IC50 (µg/ml), pseudovirus neutralization [23]: > 50 µg/mL
- IC50 (pseudovirus neutralization) [24]: > 50 µg/mL
- IC50 (µg/ml), pseudovirus neutralization [25]: > 50 µg/mL
- IC50 [26]: 0.29 µg/mL
- IC50 (pseudovirus neutralization) [27]: > 50 µg/mL
- IC50 (µg/ml), pseudovirus neutralization [28]: > 50 µg/mL
- neutralization IC50 [29]: 2.26 µg/mL
- neutralization IC90 [29]: 24.1 µg/mL
- IC50 (µg/ml), pseudovirus neutralization [30]: > 50 µg/mL
- IC50 [31]: > 50 µg/mL
- IC50 [32]: 1.67 µg/mL
- IC50 (pseudovirus neutralization) [33]: 1.81 µg/mL
- IC50 [34]: > 50 µg/mL
- IC50 (µg/ml), pseudovirus neutralization [35]: 1.94 µg/mL
- IC50 [36]: 0.08 µg/mL
- IC50 [37]: 0.2 µg/mL
- IC50 (µg/ml), pseudovirus neutralization [38]: > 50 µg/mL
- neutralization IC50 [39]: > 50 µg/mL
- neutralization IC90 [39]: > 50 µg/mL
- IC50 (pseudovirus neutralization) [40]: > 50 µg/mL
- IC50 (µg/ml), pseudovirus neutralization [41]: > 50 µg/mL
- IC50 (µg/ml), pseudovirus neutralization [42]: > 50 µg/mL
- neutralization IC50 [43]: > 50 µg/mL
- neutralization IC90 [43]: > 50 µg/mL
- neutralization IC50 (HIV-1 JRCSF Env (HIV-1)): 0.66 µg/mL
- neutralization IC90 (HIV-1 JRCSF Env (HIV-1)): 5.38 µg/mL
- IC50 (µg/ml), pseudovirus neutralization [44]: > 50 µg/mL
- neutralization IC50 [44]: > 50 µg/mL
- neutralization IC90 [44]: > 50 µg/mL
- IC50 (µg/ml), pseudovirus neutralization [45]: > 50 µg/mL
- IC50 (µg/ml), pseudovirus neutralization [46]: > 50 µg/mL
- IC50 (µg/ml), pseudovirus neutralization [47]: > 50 µg/mL
- IC50 (µg/ml), pseudovirus neutralization [48]: > 50 µg/mL
- IC50 [49]: 4.39 µg/mL
- IC50 [50]: > 50 µg/mL

Substance: 4E10 (antibody)
- IC50 (µg/ml), pseudovirus neutralization [1]: 6.53 µg/mL
- IC50 (pseudovirus neutralization) [2]: 1.87 µg/mL
- IC50 [3]: 3.3 µg/mL
- IC50 (pseudovirus neutralization) [4]: 7.61 µg/mL
- IC50 [5]: 18.2 µg/mL
- IC50 (µg/ml), pseudovirus neutralization [6]: 35.2 µg/mL
- IC50 (µg/ml), pseudovirus neutralization [7]: 1.02 µg/mL
- IC50 (µg/ml), pseudovirus neutralization [8]: 1.13 µg/mL
- IC50 (pseudovirus neutralization) [9]: 2.75 µg/mL
- IC50 [10]: 1.1 µg/mL
- IC50 [11]: 10.5 µg/mL
- IC50 [12]: 5.71 µg/mL
- IC50 (µg/ml), pseudovirus neutralization [13]: 1.19 µg/mL
- IC50 (µg/ml), pseudovirus neutralization [14]: 0.8 µg/mL
- IC50 (µg/ml), pseudovirus neutralization [15]: 1.48 µg/mL
- neutralization IC50 [16]: 1.55 µg/mL
- neutralization IC90 [16]: 12.8 µg/mL
- IC50 (µg/ml), pseudovirus neutralization [17]: 3.6 µg/mL
- IC50 [18]: 4.7 µg/mL
- IC50 [19]: 1.69 µg/mL
- IC50 (µg/ml), pseudovirus neutralization [20]: 0.64 µg/mL
- IC50 [21]: 17.9 µg/mL
- IC50 [22]: 22.6 µg/mL
- IC50 (µg/ml), pseudovirus neutralization [23]: 0.34 µg/mL
- IC50 (pseudovirus neutralization) [24]: 7.36 µg/mL
- IC50 (µg/ml), pseudovirus neutralization [25]: 1.57 µg/mL
- IC50 [26]: 1.39 µg/mL
- IC50 (pseudovirus neutralization) [27]: 3.6 µg/mL
- IC50 (µg/ml), pseudovirus neutralization [28]: 1.84 µg/mL
- neutralization IC50 [29]: 41.4 µg/mL
- neutralization IC90 [29]: > 50 µg/mL
- IC50 (µg/ml), pseudovirus neutralization [30]: 2.04 µg/mL
- IC50 [31]: 0.53 µg/mL
- IC50 [32]: 4.28 µg/mL
- IC50 (pseudovirus neutralization) [33]: 0.37 µg/mL
- IC50 [34]: > 50 µg/mL
- IC50 (µg/ml), pseudovirus neutralization [35]: 0.86 µg/mL
- IC50 [36]: 1.46 µg/mL
- IC50 [37]: 2.45 µg/mL
- IC50 (µg/ml), pseudovirus neutralization [38]: 1.36 µg/mL
- neutralization IC50 [39]: 11.2 µg/mL
- neutralization IC90 [39]: > 50 µg/mL
- IC50 (pseudovirus neutralization) [40]: 0.66 µg/mL
- IC50 (µg/ml), pseudovirus neutralization [41]: 1.07 µg/mL
- IC50 (µg/ml), pseudovirus neutralization [42]: 0.45 µg/mL
- neutralization IC50 [43]: 1.02 µg/mL
- neutralization IC90 [43]: 16.4 µg/mL
- neutralization IC50 (HIV-1 JRCSF Env (HIV-1)): 6 µg/mL
- neutralization IC90 (HIV-1 JRCSF Env (HIV-1)): 44.1 µg/mL
- IC50 (µg/ml), pseudovirus neutralization [44]: 1.17 µg/mL
- neutralization IC50 [44]: 1.9 µg/mL
- neutralization IC90 [44]: 23.5 µg/mL
- IC50 (µg/ml), pseudovirus neutralization [45]: 0.47 µg/mL
- IC50 (µg/ml), pseudovirus neutralization [46]: 15.4 µg/mL
- IC50 (µg/ml), pseudovirus neutralization [47]: 5.3 µg/mL
- IC50 (µg/ml), pseudovirus neutralization [48]: 1.15 µg/mL
- IC50 [49]: 12.7 µg/mL
- IC50 [50]: 2.46 µg/mL

From patent publication US20160264649A1
